Experimental findings from the supplement of paper PMC9170038 are described below.

The data set relates to MS2 coat protein. Put plainly: apparent KD of MS2 coat protein; designed switch direction (-1 OFF switch, 1 ON switch): -1; higher = weaker reporter binding. The method in brief: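 The reported apparent KD is a per-design median over clusters, from curve fits of normalised cluster fluorescence. Protein titrations used SNAP-549-labelled MS2 coat protein, doubled from 0.7 or 1.5 nM to 3 µM, in Tris-HCl pH 7.5 buffer with KCl, MgCl2, BSA, DTT, tRNA and Tween-20, with no input, 200 uM small-molecule ligand, or an oligonucleotide input. The RNA switches were transcribed on Illumina chips by stalled E. coli RNA polymerase.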

[1] abbreviates: Eterna round: R95, input ligand: FMN 200 uM.
Setting [2] is: Eterna round: R95, input ligand: microRNA oligo, concentration not stated.
[3] abbreviates: Eterna round: R95, input ligand: none.

For “AAGUACCGUCACGAUAGUGAUGGUACAACAAGUAGUGAAACAUGAGGAUCACCCAUGUCCUCAUUUGCUCGUCUUAU [Sensor 3 - 87] (puzzle: Sensor v3, turn-off variant 2)”, the “apparent KD of MS2 coat protein” value under setting [1] is 1030 nM, the “apparent KD of MS2 coat protein” value under setting [2] was 365 nM and the “apparent KD of MS2 coat protein” value under setting [3] is 806 nM.
The matching figures for “AAGUACCGUCACGAUAGUGAUGGUACAACAGGUAAAUGUACAUGAGGAUCACCCAUGUCCUCUUUUGCUCGUCUUAU [Sensor 3 - 93] (puzzle: Sensor v3, turn-off variant 2)”: 147 nM, 36.2 nM and 160 nM.
Consider “AAGUACCGUCACGAUAGUGAUGGUACAGCAAGCAGUGAAACAUGAGGAUCACCCAUGUCCUCAAUUGCUCGUCUUAU [Sensor 3 - 78] (puzzle: Sensor v3, turn-off variant 2)”, for which the “apparent KD of MS2 coat protein” value by setting is: under setting [1], 43.3 nM; under setting [2], 211 nM; under setting [3], 44.5 nM.
With “AAGUACCGUCACGAUAGUGAUGGUACAGCAAGUAGUGAAACAUGAGGAUCACCCAUGUCCUCAAUUGCUCGUCUUAU [Sensor 3 - 82] (puzzle: Sensor v3, turn-off variant 2)”, the “apparent KD of MS2 coat protein” value was 110 nM under setting [1], 171 nM under setting [2] and 115 nM under setting [3].
Regarding “AAGUACUACAAGCUUAGGGACAUGAGGAUCACCCAUGUUCGUCUUAUUGAUCUAGGUACGCUGACGUACCUAGAUCA [Mat - Sensor v3 - turn-off var 1 - JL Mod - D10] (puzzle: Sensor v3, turn-off variant 1)”, the “apparent KD of MS2 coat protein” value runs as follows: under setting [1], 16.2 nM; under setting [2], 44.5 nM; under setting [3], 15.5 nM.
For the sequence “AAGUAGUGUGUGAGGAUAUUGGUGGAAUGACAUAUUAAGAAGGCACAUGAGGAUCACCCAUGUGGGUUGACACG [Brourd's EX4 #19] (Eterna round: R97, puzzle: Brourd's mod of Exclusion 4)”, the “apparent KD of MS2 coat protein” value runs as follows: (input ligand: FMN 200 uM) 269 nM; (input ligand: none) 98.4 nM.
Regarding “AAGUAUAGAGGAUAUAGUAGUUACAACAUGAGGAUCACCCAUGUUCUUCAUAACGUAGUUCUAGAAGGCUGAUAAA [EX-5 Malc#28] (puzzle: Exclusion 5)”, under setting [2], the “apparent KD of MS2 coat protein” value stood at 172 nM.
Turning to “AAGUCCAGAGGAUAUCAGACGCGGCACAUGAGGAUCACCCAUGUAUUCCCGUCUGCCGACUGAGAAGGUUGGAAAG [Vesoarusqu] (puzzle: Exclusion 5)”, under setting [2], the “apparent KD of MS2 coat protein” value was determined as 11.1 nM.
On to “AAGUCGACGGUGAGGAUAUAGGUUGAACGACAGAUCUAGAAGGUACAUGAGGAUCACCCAUGUGGGUAACGUCG [Brourd's EX4 #36] (Eterna round: R97, puzzle: Brourd's mod of Exclusion 4)”, for which the “apparent KD of MS2 coat protein” value reads like this: (input ligand: FMN 200 uM) 54.8 nM; (input ligand: none) 98.2 nM.
Taken in the same sequence, the figures for “AAGUCGACGGUGAGGAUAUUGGUUGAACGACAGAUUAAGAAGGUACAUGAGGAUCACCCAUGUGGGUAACGUUG [Brourd's EX4 #76] (Eterna round: R97, puzzle: Brourd's mod of Exclusion 4)” were 108 nM and 86.2 nM.
On to “AAGUCGAGCGUGAGGAUAUCGUCCGGACGACCCAACGAGAAGGCACAUGAGGAUCACCCAUGUGAUUCAGCUCA [Brourd's EX4 #50] (Eterna round: R97, puzzle: Brourd's mod of Exclusion 4)”, for which the “apparent KD of MS2 coat protein” value came to 20.3 nM (input ligand: FMN 200 uM) and 18.7 nM (input ligand: none).
As to “AAGUCGGCAGGAUAUACAUGAGGAUCACCCAUGUAAAUUUUUCGUUUAACUUGAAUGUGUAGAAGGGCCAUGAA [Ex3 #67] (Eterna round: R97, puzzle: Exclusion 3)”, the “apparent KD of MS2 coat protein” value (input ligand: FMN 200 uM) amounted to 25.8 nM and the “apparent KD of MS2 coat protein” value (input ligand: none) came out at 27.2 nM.
As to “AAGUUCAGAGGAUAUGCCCAGCUCGACAUGAGGAUCACCCAUGUAUCCACAGAACGUACGGCAGAAGGCUGCAAUA [Eternabot (Original) Solution 9] (Eterna round: R97, puzzle: Exclusion 5)”, the “apparent KD of MS2 coat protein” value came to 69.4 nM (input ligand: FMN 200 uM) and 86 nM (input ligand: none).
“AAGUUGAAAGUCAGGAUAUCCAGACAAAAGUCAACGGAGAAGGGACUUGAGGAUCACCCAAGUGACCCUAAAUG [Usraleribe] (Eterna round: R97, puzzle: Brourd's mod of Exclusion 4)”: the “apparent KD of MS2 coat protein” value runs as follows: (input ligand: FMN 200 uM) 23.9 nM; (input ligand: none) 14.8 nM.
On to “AAUAACAAGUAAGAUCCUAACAUGAGGAUCACCCAUGUGCUCGUCUUGUAAAGUACUAUCACGAAAGUGAUAGUACA [Sensor 3, v1 - 51] (puzzle: Sensor v3, turn-off variant 1)”, for which the “apparent KD of MS2 coat protein” value runs as follows: under setting [1], 48.3 nM; under setting [2], 295 nM; under setting [3], 54.7 nM.
Consider “AAUAACAAGUAAGGUCCUAACAUGAGGAUCACCCAUGUGCUCGUCUUAUAAAGUACUAUCACGAAAGUGAUAGUACA [Sensor 3, v1 - 52] (puzzle: Sensor v3, turn-off variant 1)”, for which the “apparent KD of MS2 coat protein” value runs as follows: under setting [1], 52.5 nM; under setting [2], 414 nM; under setting [3], 52.1 nM.
Regarding “AAUAACAAGUAGAUCCUAAACAUGAGGAUCACCCAUGUGCUCGUCUUGUAAAGUACUAUCACGAAAGUGAUAGUACA (Eterna round: R97, puzzle: Sensor, turn-off variant 1)”, the “apparent KD of MS2 coat protein” value is, setting by setting: (input ligand: FMN 200 uM) 84.5 nM; (input ligand: none) 85.2 nM.
In the case of “AAUAACAAGUAGAUCCUAAACAUGAGGAUCACCCAUGUGCUCGUCUUGUAAAGUACUAUCACGAAAGUGAUAGUACA [Sensor 3, v1 - 58] (puzzle: Sensor v3, turn-off variant 1)”, the “apparent KD of MS2 coat protein” value by setting is: under setting [1], 67 nM; under setting [2], 360 nM; under setting [3], 115 nM.
On to “AAUAACAAUGUGAGGAUAUCUAGAGCUUCGGCUCUAGAGAAGGCACAUGAGGAUCACCCAUGUCUCAAUAACAA [BmEx4/2-E6] (Eterna round: R97, puzzle: Brourd's mod of Exclusion 4)”, for which the “apparent KD of MS2 coat protein” value is 339 nM (input ligand: FMN 200 uM) and 54.6 nM (input ligand: none).
On to “AAUAACAGAGGAUAUACUAAAAUAUGAAUAAAAUAAAUAAAACAUGAGGAUCACCCAUGUAGAAGGCUGAAUAA [JMF's Not so obvious solution 7] (puzzle: Exclusion 2)”, for which the “apparent KD of MS2 coat protein” value is, setting by setting: under setting [1], 26 nM; under setting [2], 29.3 nM; under setting [3], 25 nM.
For the sequence “AAUAACAGAGGAUAUACUAUUUUAUGUAUUUAUUAUUUUGAACAUGAGGAUCACCCAUGUAGAAGGCUGAAUGA [JMF 62] (puzzle: Exclusion 2)”, under setting [2], the “apparent KD of MS2 coat protein” value came to 24.4 nM.
On to “AAUAACAGAGGAUAUACUAUUUUAUGUAUUUAUUAUUUUGAACAUGAGGAUCACCCAUGUAGAAGGCUGAUUAA [JMF 47] (puzzle: Exclusion 2)”, for which, under setting [2], the “apparent KD of MS2 coat protein” value was 28.7 nM.
For “AAUAACAGAGGAUAUACUAUUUUAUGUGUUUAUUGUUUUGAACAUGAGGAUCACCCAUGUAGAAGGCUGAAUGA [JMF 67] (puzzle: Exclusion 2)”, under setting [2], the “apparent KD of MS2 coat protein” value was 25.8 nM.
With “AAUAACAGAGGAUAUACUAUUUUAUGUGUUUGUUAUUUUAAACAUGAGGAUCACCCAUGUAGAAGGCUGAUUGA [JMF 72] (puzzle: Exclusion 2)”, the “apparent KD of MS2 coat protein” value under setting [2] came to 41 nM.
